The values that follow come from article PMC8800519 (Journal of Molecular Cell Biology, 2021).

This experiment addresses recombinant mouse α1C/β2A tubulin heterodimer (mouse, UniProt P68373;Q7TMM9). Put plainly: single-molecule TIRF microscopy.

Sequence of recombinant mouse α1C/β2A tubulin heterodimer (P68373 whole entry, one chain of several): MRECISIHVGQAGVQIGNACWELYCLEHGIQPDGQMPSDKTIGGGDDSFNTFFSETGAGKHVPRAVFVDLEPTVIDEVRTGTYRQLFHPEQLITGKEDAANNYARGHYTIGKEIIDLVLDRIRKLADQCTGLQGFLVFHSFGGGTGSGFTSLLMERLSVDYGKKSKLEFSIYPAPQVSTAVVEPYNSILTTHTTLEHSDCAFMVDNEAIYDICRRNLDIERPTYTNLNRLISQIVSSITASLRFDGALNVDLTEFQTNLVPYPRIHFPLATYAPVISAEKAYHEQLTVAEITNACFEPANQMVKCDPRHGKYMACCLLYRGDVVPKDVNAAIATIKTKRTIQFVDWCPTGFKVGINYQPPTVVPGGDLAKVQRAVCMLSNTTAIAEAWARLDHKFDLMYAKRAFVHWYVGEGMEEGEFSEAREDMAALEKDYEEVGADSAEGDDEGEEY

B1: EB1-GFP (full-length human EB1 with a GFP tag) (natural protein)
chain: MAVNVYSTSVTSDNLSRHDMLAWINESLQLNLTKIEQLCSGAAYCQFMDMLFPGSIALKKVKFQAKLEHEYIQNFKILQAGFKRMGVDKIIPVDKLVKGKFQDNFEFVQWFKKFFDANYDGKDYDPVAARQGQETAVAPSLVAPALNKPKKPLTSSSAAPQRPISTQRTAAAPKAGPGVVRKNPGVGNGDDEAAELMQQVNVLKLTVEDLEKERDFYFGKLRNIELICQENEGENDPVLQRIVDILYATDEGFVIPDEGGPQEEQEEY
As to B1, the binding result was “binds”.
